This data set in a line: soluble fraction after stress (log2 fold change); higher = more stays soluble; pooled small domains, quantitative proteomics. The settings on record: stress: 75 degC.
For the sequence “HMNINHEINIKSKKKISILENNPNLSQFYLTKNPDQYNYNLVFSDKSELNKLKEKLESDNEVEDIDIRYG”, the “soluble fraction (log2)” value is -0.0517.

Regarding “HMNINTEMEKVSYSLGVNIASSLKQQGWELDAKSLSDAFVDVFNGNKLLIDEKEASSILQNYQQKIANK”, the “soluble fraction (log2)” value was 0.0321.

For “HMNIQKYFAGREQFIELLEAVGIRTLEQFASADPSTVLPELHQAKRMLKLQTEIPSAPVFREWVNQALS”, the “soluble fraction (log2)” value was -0.636.

On to “HMNIQPAMLNAANGGVAWKERGISMSQIMKRNAHTAEGSQKLWDYAFENFFQKNIDAGNIRDDR”, for which the “soluble fraction (log2)” value was -0.157.

“HMNIVKGDTTANVRVVQQRLYNLGYYTYKVDGIWGTRTKTAVKKFQKDKGLVADGIVGAKTEKALGITLT”: the “soluble fraction (log2)” value was -2.35.

On to “HMNIVVSSIDSNSFEIVNKETGEQAVISYDKETKKGFVLINGVKKEFFQDGNKVYYDGYVIAE”, for which the “soluble fraction (log2)” value came out at 0.0406.

As to “HMNKDEFLNELKSYLSILEDEEQADILEEYTQHIDMKISTGLSEAEAIRDFGNVSELAAQILEAY”, the “soluble fraction (log2)” value is -0.465.

For the sequence “HMNKIGTIVSINGPIVKTAGDVGFVMHEMVYVGKEKLVGEVIGLTTDFTIVEVYEETSGIKPGETIEGT”, the “soluble fraction (log2)” value was -1.87.

On to “HMNKKEIISVLEKIIPPSQIKNINIFGSELVIDLNIDNPSLHAKKKLEKSIMSSFDENLKIIVNFSVE”, for which the “soluble fraction (log2)” value is -0.252.

“HMNKLSISALAETVSTKRKEKSMTQQDLSDATGINRALISRLEQKDFIPSIPQLEKLEEILGFELEEVF”: the “soluble fraction (log2)” value is -0.324.

Regarding “HMNKMHKLPSVSEILNKVRLQKIHNESFIKFKIKEEIDRYRKLAKKDQLFLSRDEITYEIIEKLLNFSMPS”, the “soluble fraction (log2)” value is -3.97.

As to “HMNKMIDAPDLTGLSLEDAKLVLEANKLQLGTVSHEPSDKPEDVVISQDPMEGQEIQQGGKVNLVVSYGD”, the “soluble fraction (log2)” value was 0.305.

Turning to “HMNKNNLRNVSSKIRKSRRVLNLSQAELSKKLDISPSYLNLIESGKRPITVPLLIKLGNILGISLKDL”, the “soluble fraction (log2)” value was -1.89.

“HMNKNQIGTNAGIVWKLLSDNVHWEYDKLKHASGLSDRDLNAAIGWLAREDKIDFDIDEQHDRLFL”: the “soluble fraction (log2)” value is -0.515.

As to “HMNKPKIIINSVDDSVFSDYVKDSLSIAEVARSIGIDNNKINTSVYREIHKRIDSLKLDTSHFTGGAWN”, the “soluble fraction (log2)” value is -0.235.

In the case of “HMNKPLFVYPNPVHQGKINLSKATNFMVVDLLGQTVNKTNYGKDFSIDNLPNGVYFIKTTEGEIIKFMK”, the “soluble fraction (log2)” value is -0.701.

Take “HMNKQEFLNTLRIIFKKANVLDVESIIDVYEEHFAVGYEKGLNDEQIIKSLGTPKEIYTSYVEAGI”: the “soluble fraction (log2)” value was -1.31.

For the sequence “HMNKSGVVLIRVTVDASGRVTSAAYEPKGSTTSDVELVAEARKAALRTRFTESRTVIEGGVITYIFKL”, the “soluble fraction (log2)” value was -2.59.

For the sequence “HMNKSYTVPDVRGMTVEEAQEAEGVKDIFTVHVQGTRKTDEYQPGQIVEQDPIAGRTRKSNFVIEVYVAE”, the “soluble fraction (log2)” value is -0.34.

Consider “HMNKTQLQIEDEVLKPLIAEIFSKSKGRFGARKIRSKLMGLGYTASERRILRLMKELGLSSAG”, for which the “soluble fraction (log2)” value was -1.19.

On to “HMNKTVKIPNVSNLSREDAESVLKENGISVNSEVKQIESDTIEKGKVVKTDPSIGTSVKKGRSITIYVSSG”, for which the “soluble fraction (log2)” value worked out at 0.544.

Consider “HMNKWMQLASEEDKKLFNEAPKEIQDSITESAKFFDIRTKADVDTFWANTGLRQMKQQAMLNESFVNEY”, for which the “soluble fraction (log2)” value is -0.0697.

Consider “HMNLDMVINKIGIVTEDIKQDKIGEVKVLGKRWSAYSNTELKKDEKVKILSIDGVKLKVEKI”, for which the “soluble fraction (log2)” value is -0.135.

Consider “HMNLGAHVYWRNHRAYGDFREYEDVGGGREALALPGSTWGTKDPRVAQALFAARLTEFQEARVGR”, for which the “soluble fraction (log2)” value was -0.989.

Regarding “HMNLGVIYSLKAEVRSEPNTFSTRLFEVHEGLKVSINQLENDWVEIELLDGKTGWISNDQIRLI”, the “soluble fraction (log2)” value was -2.61.

In the case of “HMNLIFFSENLSTFRKEKGWTQSELAEKLGVKANTISNYEKGISTPDYKIIAKLRELFEMPTDVLLYSNLS”, the “soluble fraction (log2)” value was -1.86.

Consider “HMNLLDYDFFEKMSSKEQEEIVEKVYIDFLNKSTGTNSPFYLKLFEKGKKSYIVNWLNENNF”, for which the “soluble fraction (log2)” value is -1.77.

For the sequence “HMNLLSPREKQSLTLYASGLTLREVASELKLSPNSVGKFISRGKFKLNKSGAIVNSKTSIYLELKKRNLI”, the “soluble fraction (log2)” value is -0.147.

For the sequence “HMNLNESVELGQELLSQALAQLGIRGELSPSTIDKLLAESSAKSMEELYADIGIGKRMPALVARHIFGLMD”, the “soluble fraction (log2)” value was -0.627.

As to “HMNLQAYQSVLDKLNEEYGTTFRFPTEEELHEVGLTNTVDPRTATVSATEFEKYMRPIAERISQANL”, the “soluble fraction (log2)” value is -0.205.

In the case of “HMNLSAREWTSADGSRTFQGELTGFQDGKVKVRRSDGKSLVFAIELLSESDQQFIKTNQLVIAKKDED”, the “soluble fraction (log2)” value amounted to 0.0766.

As for “HMNLYHALDQQGEVYLTIPPRQSGRGKVTLMIDGRVREMDAMTDGDALKTGSKVRVTEILDENALKVEAM”, the “soluble fraction (log2)” value is 0.215.

Regarding “HMNMAEETLDTAAKILKAAEEEFMEKGYGNAKMMSIAARAGVSHSMLHYYYRSKGKLFQMIFDEKA”, the “soluble fraction (log2)” value was -1.41.

For the sequence “HMNMAEQGISLDSEAGKARFVSQALPLLKQLPDGVFKQRMLNQLADRVEVTADFIAQQLAQLKAA”, the “soluble fraction (log2)” value was -0.0979.

Turning to “HMNMAVELEDGTQIFVFSEDGEFAGKRAVIADEEGRPTEENAPAGTHTLRDGRSIVVGEGGVIESVVET”, the “soluble fraction (log2)” value was -0.0672.

Regarding “HMNMEYQKAINHIVQMVKDGQLIVGSKIPSERDLSESLGIGRNSTREAISILRGMGLVESRHGSGNYIAKD”, the “soluble fraction (log2)” value was -0.2.

Consider “HMNMGEKIRSLIGQFGVTSEDLKNLSVANLLIRMNQEAGDSKTKGILASLLETVNKAGVGNLTPDALGIK”, for which the “soluble fraction (log2)” value is -0.164.

“HMNMLGEQVRNIRKSRGFTLKALAEQTGLSIGYISQIERNLTDPSLSTLRKISAALDVPTYLFMG”: the “soluble fraction (log2)” value is -2.13.

Turning to “HMNMLGSNIKYLRNRHKLSQQELSEKLGVPRSSLSDYERGHTQVGLDSLIKLADIFDVKIDDLLRSNLSHR”, the “soluble fraction (log2)” value was -0.439.

For “HMNMPHEIDANFISSLGRLIDNHGKNYGDFQIFREMFLDYFPRFDELSSNNKEKINRRLYKFFETLFG”, the “soluble fraction (log2)” value was -2.09.

For “HMNMVEESVKKSSQWAVFEPNTISTWVKIQAMIENYLYQKWKEGALAGAKPEHAFFVKVGLGETM”, the “soluble fraction (log2)” value was 0.258.

For “HMNNEISINGNKIYFNKNISKVFIYDISGKLIKHKNNFNNNFIDLSEFNSAFYIIKALDINENYTTKKIFL”, the “soluble fraction (log2)” value is -1.69.

For “HMNNFTPEHLEKDIEGSLFFRRLKETAREEPGSLTVAQKDFIQMWHDQADGVYTLRQVFVQTAFDHVRSL”, the “soluble fraction (log2)” value is 0.315.

In the case of “HMNNFTQSALDTIDGIGKRRKKLLLNHFGSVKLIENASIEDIKKIDGISDLVANKIYNFFNKN”, the “soluble fraction (log2)” value was -1.04.

For “HMNNGAEIGAEIRSLRKARGLTLEDLAAKIGRSVGYISQVERGISPLTIPNLKAIAEVLGVGINWFFRGEA”, the “soluble fraction (log2)” value was -1.15.

Take “HMNNILNYTIAELMEILKIDDLETENVINSSNNLINKSINENNFPLAEFYEDVKNNLIEFIETFDS”: the “soluble fraction (log2)” value is -0.771.

For “HMNNLELSEEEKSVLTIIEKEGLIELDKLKTKLELSNKKWDKTLKFLTKNKLAKVVKNDNGLFVEL”, the “soluble fraction (log2)” value was -0.158.

Take “HMNNLLEDIKARLMAQAEAGGHIDTETELAEHFGVTRYRIRKELDLLSQMGLLRRQPKNGIEVLTV”: the “soluble fraction (log2)” value was -0.171.

With “HMNNLNDIIEIIRIYAKNYARNNPSWNHSELINRIRDKALGEAEDYNIRLSEEDLALITELSLRGL”, the “soluble fraction (log2)” value was -0.713.

As for “HMNNMVNTLLKLLAEQDVLRGIVRRFTPSSVFVFLQNEEVEVELPLQGRSLAPGQLVELTQEGASVALKRL”, the “soluble fraction (log2)” value was -0.936.

In the case of “HMNNPLLDKVYQLMKQNNITEEEIVRAVAMKGYFPDDMKLGDYPDDFIDGVLIGAWDQIKQFIINNISPFK”, the “soluble fraction (log2)” value is -0.281.

For “HMNNSDIDITVGKNSISINNPNRTNIIIYSSNGMLIDSSKNASYKRNLPSGIYIVKSGSSTHKVIV”, the “soluble fraction (log2)” value was -0.905.

For “HMNNTIKFFVSQDDDSTRLDVFLSKKIENLTRSNIKKFINLNNVKINKATINSPSKKVKLYDEIEIKFSS”, the “soluble fraction (log2)” value is -2.46.

On to “HMNNTIKFSVDSQNSGKRLDIFLTENIKNYTRSFLKKLIENRQVKLNNNFIISPSERVKFKDQININILQ”, for which the “soluble fraction (log2)” value was -1.8.

For the sequence “HMNNVDIMGRMVYDDQHREVINFGKYKGVLVTEVLKKDPGYFSWIQQGDFPSDMKRIMMAIKLRM”, the “soluble fraction (log2)” value was -2.61.

As to “HMNNVDQLIEQYKTLPGGLLPLLHAIKHALGYIPESTVGSIAKGFNLSRAEVHGVISFYHDFNTQP”, the “soluble fraction (log2)” value turned out to be 0.07.

Take “HMNPAYTDSRMKTFLEELPVMKASLSQKHVTRFLVWQEYIGRHPDGYGKSQFFYHLKQNLVAAKG”: the “soluble fraction (log2)” value is -0.391.

For “HMNPDTERIREFVAVSLKNRKVATSGEIQNMIVKQFKNFKLKSHGYSNMKSFLSSIDKIQLNSNGKYSLK”, the “soluble fraction (log2)” value was -1.89.

With “HMNPEDDLLKAIIMKYFSNAQVQVDKNVIEYLLKRVDRDYQNLYNILEKINILSLQRKSKITTHLIRDIM”, the “soluble fraction (log2)” value is -0.414.

For “HMNPFLELTEREMDVLRLIAIGRNNQEIASELVISEKTVKTHITNIFSKLHFKDRTQAAAYAWQSGIVR”, the “soluble fraction (log2)” value was -1.73.

As to “HMNPHGVAIIDVRKGKASTLRSLATSVRSLGEWDQLKIPIFNLESLTSLVLWHGLDAIVKEPESLQSNLIL”, the “soluble fraction (log2)” value was -0.513.

Take “HMNPHIQFWSLLRRQPDYNSAYKDELKAMFVWQWSGEKTESLNEFYKTDPYRYKSMLMDMRNRAL”: the “soluble fraction (log2)” value is -3.33.

For “HMNPIDAHVGARVRLRRMLIGMSQEKLGELLGVTFQQIQKYEKGANRIGASRLYEVSRVLDVPVQYFFDDM”, the “soluble fraction (log2)” value is -3.66.

With “HMNPLDGTSVHPESYEAAEKLLKKQGFSLEDISGGKLTGLSLTIKDYARLAKELEIGEITLRDIVKELEK”, the “soluble fraction (log2)” value is -0.132.

As for “HMNPLHYKAAHWVREGLFDDLKSFVELETRINSIFEEKDRGDVFEIFIEGYRSFSKWRALVLRLA”, the “soluble fraction (log2)” value is -0.365.

With “HMNPNEVQIPDLVNKTEEEAEQILKDLKLKLVVKSEEYDENIEKGKIISQDPTYKENYKIKEHSEISVIIS”, the “soluble fraction (log2)” value came out at 0.586.

In the case of “HMNPNPFVNLSPRELEVLNLLFKGYGVLEISNELNIGQTTASTFKSRILKKTSTHSVVELIKLAEQYGFIP”, the “soluble fraction (log2)” value was -0.85.

As for “HMNPNPYIVLGVDKSMPFGEIKKVYQRKRREFHPDSLVAKGLPDELLQKAQDKFIAIQEAYKSIEKNQV”, the “soluble fraction (log2)” value stood at 0.44.

Regarding “HMNPNSIDEKLKLLSNREKEVAILVLKKLSYFEISEQLNITIRTVKAHTKNIYEKFNVSNRLAFLLLFN”, the “soluble fraction (log2)” value was -0.00667.

The values above are taken from the domain aggregation screens of Martell et al. (2025).
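Note: 20 min heating vs room temperature control held 20 min.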
